Assay results taken from publication PMC11608337 (Nature Communications, 2024).

Molecular target: T1, RING domain of IRF2BP2 (residues 498-578) (UniProt Q7Z5L9 498-578)
T1 sequence (looked up): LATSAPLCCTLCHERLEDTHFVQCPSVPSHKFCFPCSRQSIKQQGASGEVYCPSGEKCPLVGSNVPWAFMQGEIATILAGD
Test: ITC

Binder: RASVIKKT [IRF2 peptide (residues 331-338, RASVIKKT)]
- Kd: 6.45 µM

Binder: RSSVITSA [RxSVI motif-containing peptide of ZBTB16 (residues 285-292, RSSVITSA)]
- Kd: 12.6 µM

Binder: RGSVITSA [mouse ZBTB16 peptide (residues 285-292, RGSVITSA)]
- Kd: 16.8 µM

Binder: GPGTPTRSSVITSARELHYG (peptide, UniProt Q05516 279-298, looked up) [ZBTB16-L (residues 279-298)]
- Kd: 7.21 µM

Binder: RSVLVHAG [NFAT1 peptide (residues 782-789, RSVLVHAG)]
- Kd: 514 µM

Binder: RPDRETRASVIKKTSDITQ (peptide, UniProt P14316 325-343, looked up) [IRF2-L (residues 325-343)]
- fold increase of binding affinity (KD) over the shorter peptide: 3.9 fold

Binder: ERQQNRPSVITCASAG (peptide, UniProt Q14135 156-171, looked up) [VGLL4-L (residues 156-171)]
- fold increase of binding affinity (KD) over the shorter peptide: 2.1 fold
